Data published in publication PMC12063641.
Several values for one entry are separate records, joined by “and”; a condition that tells them apart may be missing. Identical values can stand only once.

Tests used:
[1] = target: HIV-1 NL4-3 matrix protein p17 (MA) L20K/E73K/A82T, in mature virions or VLPs (HIV-1 (NL4-3)); experiment: SDS-resistant oligomer bands on SDS-PAGE and Western blot
[2] = target: purified recombinant MA L20K/E73K/A82T mutant protein (HIV-1); experiment: SDS-PAGE of purified protein (SDS-resistant oligomer bands)
[3] = target: HIV-1 NL4-3 Gag polyprotein precursor Pr55Gag with MA-L20K/E73K/A82T, uncleaved in immature VLPs (PR-D25N) (HIV-1 (NL4-3)); experiment: cryo-EM structure
[4] = target: HIV-1 NL4-3 matrix protein p17 (MA) L20K, in mature virions or VLPs (HIV-1 (NL4-3)); experiment: SDS-resistant oligomer bands on SDS-PAGE and Western blot

Question: How did the stoichiometry N [1] turn out when “HIV-1 NL4-3 matrix protein p17 (MA) L20K/E73K/A82T, in mature virions or VLPs (natural protein)” was run?
Answer: 2 and 3

Question: With “purified recombinant MA L20K/E73K/A82T mutant protein (domain or fragment)” as the substance, how does the stoichiometry N [2] read?
Answer: 2 and 3

Question: Which stoichiometry N [3] does the source give for “HIV-1 NL4-3 Gag polyprotein precursor Pr55Gag with MA-L20K/E73K/A82T, uncleaved in immature VLPs (PR-D25N) (natural protein)” here?
Answer: 3 and 6

Question: For “HIV-1 NL4-3 matrix protein p17 (MA) L20K, in mature virions or VLPs (natural protein)”, which stoichiometry N [4] is on record?
Answer: 2 and 3
